From article PMC10686051 (Nature structural & molecular biology, 2023)

Target: the molecule itself
Experiment: MST

B1: MRE11 structured-domain (1–411 aa) (domain or fragment, UniProt P49959 1-411, looked up)
chain: MSTADALDDENTFKILVATDIHLGFMEKDAVRGNDTFVTLDEILRLAQENEVDFILLGGDLFHENKPSRKTLHTCLELLRKYCMGDRPVQFEILSDQSVNFGFSKFPWVNYQDGNLNISIPVFSIHGNHDDPTGADALCALDILSCAGFVNHFGRSMSVEKIDISPVLLQKGSTKIALYGLGSIPDERLYRMFVNKKVTMLRPKEDENSWFNLFVIHQNRSKHGSTNFIPEQFLDDFIDLVIWGHEHECKIAPTKNEQQLFYISQPGSSVVTSLSPGEAVKKHVGLLRIKGRKMNMHKIPLHTVRQFFMEDIVLANHPDIFNPDNPKVTQAIQSFCLEKIEEMLENAERERLGNSHQPEKPLVRLRVDYSGGFEPFSVLRFSQKFVDRVANPKDIIHFFRHREQKEKTGEE
modifications: amine-reactive AlexaFluor-647 dye on the labeled copy; the titrated copy is unlabeled
For B1, the Kd was 370 ± 80 nM.
